According to doi:10.1101/2025.02.17.638454, “Synergistic RAS-MAPK and AKT Activation in MYC-Driven Tumors via Adjacent PVT1 Rearrangements” (bioRxiv, 2025):

Target: T1, Recombinant KRAS protein (#ab156968, Abcam) (UniProt P01116 1-189)
T1 construct: KRAS, recombinant protein bought from Abcam; source: bought: Abcam (#ab156968), dialyzed into ITC buffer
Assay: ITC; twenty 6 ul injections (150 s intervals) of 500 uM HNB into the cell with 93 uM KRAS; 20 mM Tris pH 8.0, 100 mM NaCl, 5 mM beta-mercaptoethanol; 25 C; Affinity ITC (TA Instruments)
Conditions: both partners purified

T1 sequence (P01116 whole entry): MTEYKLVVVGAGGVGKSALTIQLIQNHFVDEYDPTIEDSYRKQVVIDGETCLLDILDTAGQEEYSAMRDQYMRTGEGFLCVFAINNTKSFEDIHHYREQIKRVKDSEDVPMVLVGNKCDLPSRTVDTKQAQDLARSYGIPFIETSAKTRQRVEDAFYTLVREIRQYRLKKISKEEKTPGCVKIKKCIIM

Kd: 364 ± 2 µM
Binder: MKTQLGAVKGFLHV [Honeybadger (HNB) peptide used for ITC]
